T1: h340 linear peptide IENQRRGQELSATRQ (Homo sapiens)
T1 construct: 15-residue peptide of human supervillin h340; numbers count on: hSV1; spot on a peptide microarray; source: printed peptide microarray (PEPperPRINT)
T1 chain: IENQRRGQELSATRQ

T2: h340 linear peptide ELSATRQAHDLSPAA (Homo sapiens)
T2 construct: 15-residue peptide of human supervillin h340; numbers count on: hSV1; spot on a peptide microarray; source: printed peptide microarray (PEPperPRINT)
T2 chain: ELSATRQAHDLSPAA


Assays:
[1] = molecular target: T1, h340 linear peptide IENQRRGQELSATRQ; assay: peptide or protein array; PEPperPRINT microarray of linear 15-residue h340 peptides (overlap 13), hybridoma supernatants diluted 1:10 and 1:1, 16 h at 4 C, anti-mouse IgG DyLight680; settings: one partner purified
[2] = molecular target: T2, h340 linear peptide ELSATRQAHDLSPAA; assay: as above; settings: one partner purified
[3] = molecular target: T3, endogenous human supervillin splice-form 4 (SV4) (human (endogenous in U2OS)); assay: immunoblot; cell extracts (HeLa; U2OS with control or SVIL-specific dsRNA; mouse embryonic fibroblasts) on 5-15% SDS gels, nitrocellulose strips probed with hybridoma supernatants diluted 1:500; settings: partners not purified
T3 construct: also called hSV4; source: endogenous, U2OS lysate

[4] = molecular target: T4, EGFP-tagged human supervillin splice-form 4 (EGFP-hSV4) (Homo sapiens, UniProt O95425-4, strain); assay: immunostaining of cells or tissue; immunofluorescence, cells fixed with cold methanol; purified antibody 100 ug/ml; overexpressed tagged supervillins in RH30 cells; settings: one partner purified
T4 construct: source: RH30 cells, transfected, fixed
T4 sequence (O95425 whole entry, looked up, stated change not applied, canonical isoform): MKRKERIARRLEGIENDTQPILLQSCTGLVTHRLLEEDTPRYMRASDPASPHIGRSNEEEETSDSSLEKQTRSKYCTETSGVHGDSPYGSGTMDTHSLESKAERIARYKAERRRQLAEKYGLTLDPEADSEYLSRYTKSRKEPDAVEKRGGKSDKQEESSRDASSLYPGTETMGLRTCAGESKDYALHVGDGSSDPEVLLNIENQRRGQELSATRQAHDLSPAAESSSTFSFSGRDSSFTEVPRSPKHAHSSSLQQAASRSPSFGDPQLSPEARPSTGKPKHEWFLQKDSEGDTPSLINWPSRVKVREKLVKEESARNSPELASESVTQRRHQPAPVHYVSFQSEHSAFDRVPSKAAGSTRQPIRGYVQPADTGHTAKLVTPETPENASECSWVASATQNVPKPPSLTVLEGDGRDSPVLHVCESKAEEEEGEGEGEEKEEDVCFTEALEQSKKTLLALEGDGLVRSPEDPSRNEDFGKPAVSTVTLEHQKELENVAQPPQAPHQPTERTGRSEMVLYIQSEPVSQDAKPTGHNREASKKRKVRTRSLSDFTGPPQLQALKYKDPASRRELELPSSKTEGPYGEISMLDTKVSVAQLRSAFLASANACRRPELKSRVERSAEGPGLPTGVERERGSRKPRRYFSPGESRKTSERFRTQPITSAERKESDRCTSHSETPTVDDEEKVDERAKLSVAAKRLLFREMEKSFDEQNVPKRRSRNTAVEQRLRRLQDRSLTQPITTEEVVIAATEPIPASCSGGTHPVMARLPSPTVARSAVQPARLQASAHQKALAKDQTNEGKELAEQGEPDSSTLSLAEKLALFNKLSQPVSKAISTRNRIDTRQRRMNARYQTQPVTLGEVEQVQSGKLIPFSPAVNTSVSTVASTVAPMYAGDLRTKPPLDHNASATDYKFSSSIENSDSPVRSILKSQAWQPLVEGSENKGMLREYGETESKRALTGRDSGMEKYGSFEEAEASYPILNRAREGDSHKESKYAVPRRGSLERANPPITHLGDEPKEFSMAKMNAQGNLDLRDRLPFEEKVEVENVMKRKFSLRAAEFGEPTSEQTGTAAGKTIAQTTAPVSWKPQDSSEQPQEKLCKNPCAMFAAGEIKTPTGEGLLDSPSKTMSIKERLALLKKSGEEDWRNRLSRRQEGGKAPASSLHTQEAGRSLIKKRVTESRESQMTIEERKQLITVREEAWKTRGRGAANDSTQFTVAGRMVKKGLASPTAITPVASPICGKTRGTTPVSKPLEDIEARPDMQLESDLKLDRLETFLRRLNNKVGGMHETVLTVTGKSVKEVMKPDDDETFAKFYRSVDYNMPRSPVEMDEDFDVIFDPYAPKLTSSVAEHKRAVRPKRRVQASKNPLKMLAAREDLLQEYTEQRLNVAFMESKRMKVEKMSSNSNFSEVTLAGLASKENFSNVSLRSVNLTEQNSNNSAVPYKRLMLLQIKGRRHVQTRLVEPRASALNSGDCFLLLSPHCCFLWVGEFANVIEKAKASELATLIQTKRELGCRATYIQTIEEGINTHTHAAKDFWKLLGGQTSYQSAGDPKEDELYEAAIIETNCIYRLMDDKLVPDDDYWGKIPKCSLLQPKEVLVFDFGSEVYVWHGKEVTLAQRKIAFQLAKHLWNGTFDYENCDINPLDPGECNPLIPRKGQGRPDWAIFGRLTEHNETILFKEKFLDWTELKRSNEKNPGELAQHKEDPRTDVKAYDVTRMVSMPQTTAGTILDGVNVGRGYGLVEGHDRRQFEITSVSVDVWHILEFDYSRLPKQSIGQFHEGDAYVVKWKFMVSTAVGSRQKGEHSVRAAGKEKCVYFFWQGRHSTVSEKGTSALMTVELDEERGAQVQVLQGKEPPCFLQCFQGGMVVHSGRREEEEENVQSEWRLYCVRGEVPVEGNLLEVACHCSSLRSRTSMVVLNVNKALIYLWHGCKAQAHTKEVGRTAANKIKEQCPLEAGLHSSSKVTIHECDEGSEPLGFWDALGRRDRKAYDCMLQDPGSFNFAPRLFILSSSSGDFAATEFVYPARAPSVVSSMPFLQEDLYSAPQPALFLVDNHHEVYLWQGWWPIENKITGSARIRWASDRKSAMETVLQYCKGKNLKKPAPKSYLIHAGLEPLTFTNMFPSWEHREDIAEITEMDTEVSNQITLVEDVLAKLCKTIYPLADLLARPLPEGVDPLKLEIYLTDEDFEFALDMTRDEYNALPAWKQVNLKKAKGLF

[5] = molecular target: T5, human supervillin N-terminus, first 340 amino acids (h340) (Homo sapiens, UniProt O95425-2); assay: BLI; Octet RED96e, 30 C, PBS-T; by the methods antibody coupled to AR2G sensors and h340 at about 2, 4, 8 and 16 nM, by the legend of Fig 3 surface-bound h340 and antibody in solution; 2:1 interaction model, global fit; KD as off-rate/on-rate; settings: both partners purified
T5 construct: supervillin, human, first 340 amino acids of splice-form 1 (SV1); numbers count on: hSV1 (the ~205-kDa splice-form, not archvillin); also called h340 immunogen; h340 antigen; source: E. coli Rosetta2(DE3)pLysS, purified (glutathione-Sepharose 4B), cleaved from GST-h340 with PreScission Protease
T5 sequence (O95425 other isoform, or with tags, fused parts or gaps): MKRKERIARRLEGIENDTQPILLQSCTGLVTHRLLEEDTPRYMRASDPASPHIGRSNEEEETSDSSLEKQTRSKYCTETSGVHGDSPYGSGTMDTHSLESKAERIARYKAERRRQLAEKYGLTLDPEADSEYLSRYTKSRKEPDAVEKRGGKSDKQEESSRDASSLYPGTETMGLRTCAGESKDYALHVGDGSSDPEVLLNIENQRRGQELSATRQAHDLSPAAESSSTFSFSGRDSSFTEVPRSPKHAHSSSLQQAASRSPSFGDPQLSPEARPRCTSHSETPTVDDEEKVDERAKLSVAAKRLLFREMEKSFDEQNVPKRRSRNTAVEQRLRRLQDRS

[6] = molecular target: T6, Flag-tagged human supervillin splice-form 4 (Flag-hSV4) (Homo sapiens, UniProt O95425-4, strain); assay: immunostaining of cells or tissue; immunofluorescence, cells fixed with 4% PFA (in CSK buffer, CSK-PFA), Triton X-100; purified antibody 100 ug/ml; overexpressed tagged supervillins in RH30 cells, or endogenous supervillin in U2OS cells on fibronectin; settings: one partner purified
T6 construct: source: RH30 cells, transfected, fixed
T6 sequence (O95425 whole entry, looked up, stated change not applied, canonical isoform): as the sequence (O95425 whole entry, looked up, stated change not applied, canonical isoform) above

Row | binding result [1] | binding result [2] | binding result [3] | binding result [4] | Kd [5] [nM] | koff [5] [s⁻¹] | kon [5] [M⁻¹ s⁻¹] | binding result [6] | Binder
1 | binds | binds | binds |  |  |  |  |  | murine monoclonal antibody clone 2G3 (hybridoma supernatant) (antibody, V domains shown, HC variable region of clone 2G3, partial CDS; mouse IgG1 heavy chain constant region (isotype IgG1 by isotyping kit); LC variable region of clone 2G3, partial CDS; mouse light chain constant region; mouse IgG1; Group 1; source: mouse hybridoma supernatant (Precision Antibody, Inc.)) VH: QIQLQQSGPELVKPGASVKISCKASAYTFTDYYINWVKQRPGQGLEWIGWIYPGSGNTKYNEKFKGKATLTVDTSSSTAYMQLSSLTSEDSAVYFCATGPFGGFAYWGQGTLVTVSA VL: DIVMTQAAPSVPVTPGESVSISCRSSKSLLHSNGNTYLYWFLQRPGQSPQLLIYRMSNLASGVPDRFSGSGSGTAFALRISRVEAEDVGVYYCMQHLEYPLTFDAGTRLELK
2 |  |  |  | binds | 0.73 | 0.000296 | 407000 |  | chimeric (rabbit Fc) monoclonal antibody 4A8 (CPTC-SVIL-2) (antibody, V domains shown, HC variable region of clone 4A8 (as the heavy chain variable region of m7), partial CDS; LC variable region of clone 4A8 (as the light chain variable region of m7), partial CDS; mouse variable regions on rabbit IgG and rabbit kappa constant regions; Group 2; also called Rb 4A8; chimeric rabbit 4A8; source: HEK293, transient production, purified (protein A)) VH: EVQLQQSGAELVRPGASVKLSCTASGFNIKDDHMHWVKQRPEQGLEWIGWIDPENGDTEYASKFQDKATITADTSSNTAYLQFSSLTSEDTAVYYCTTGEFDNWGQGTTLTVSS VL: DIVMTQAAPSIPVTPGQSVSISCRSSKSLLHSNGNTYLYWFLQRPGQSPQLLIYRMSNLASGVPDRFSGSGSATAFTLRISRVEAEDVGVYYCMQHLEYPFSFGAGTKLELK
3 |  |  |  |  | 4.21 | 0.000496 | 118000 | binds | chimeric (rabbit Fc) monoclonal antibody 1E2 (CPTC-SVIL-1) (antibody, V domains shown, HC variable region of clone 1E2 (as the heavy chain variable region of m4), partial CDS; LC variable region of clone 1E2 (as the light chain variable region of m4), partial CDS; mouse variable regions on rabbit IgG and rabbit kappa constant regions; Group 1; also called Rb 1E2; chimeric rabbit 1E2; source: HEK293, transient production, purified (protein A)) VH: QIQLQQSGPDLVKPGASVKISCKASGYTFTDYYINWVKQRPGQGLEWIGWIYPGSGNTKFNERFKDKATLTVDTSSSTAYMQLSSLTSEDSAVYFCASGPFGGFAHWGQGTLVTVSA VL: DIVMTQAAPSVPVTPGESVSISCRSSKSLLYSNGNTYLYWFLQRPGQSPQLLIYRMSNLASGVPDRFSGSGSGTAFTLKISRVEAEDVGVYYCMQHLEYPLTFGAGTKLELK

— article PMC6192639, “Generation and characterization of monoclonal antibodies that recognize human and murine supervillin protein isoforms” (PLoS ONE, 2018)
